Measured values from patent US8653023.

Target: protein phosphatase 2A (PP2A), endogenous, in N27 cell lysate

B1: protein kinase C delta (PKCδ), endogenous, in N27 cell lysate (immortalized rat fetal mesencephalic dopaminergic neuronal cells) (protein)
chain: MAPFLRISFNSYELGSLQAEDDASQPFCAVKMKEALTTDRGKTLVQKKPTMYPEWKSTFDAHIYEGRVIQIVLMRAAEDPMSEVTVGVSVLAERCKKNNGKAEFWLDLQPQAKVLMCVQYFLEDGDCKQSMRSEEEAMFPTMNRRGAIKQAKIHYIKNHEFIATFFGQPTFCSVCKEFVWGLNKQGYKCRQCNAAIHKKCIDKIIGRCTGTATNSRDTIFQKERFNIDMPHRFKVYNYMSPTFCDHCGTLLWGLVKQGLKCEDCGMNVHHKCREKVANLCGINQKLLAEALNQVTQKASRKPETPETVGIYQGFEKKTAVSGNDIPDNNGTYGKIWEGSNRCRLENFTFQKVLGKGSFGKVLLAELKGKERYFAIKYLKKDVVLIDDDVECTMVEKRVLALAWENPFLTHLICTFQTKDHLFFVMEFLNGGDLMFHIQDKGRFELYRATFYAAEIICGLQFLHGKGIIYRDLKLDNVMLDKDGHIKIADFGMCKENIFGENRASTFCGTPDYIAPEILQGLKYSFSVDWWSFGVLLYEMLIGQSPFHGDDEDELFESIRVDTPHYPRWITKESKDIMEKLFERDPAKRLGVTGNIRLHPFFKTINWNLLEKRKVEPPFKPKVKSPSDYSNFDPEFLNEKPQLSFSDKNLIDSMDQTAFKGFSFVNPKYEQFLE
  32P-kinase assay: phosphorylation of immunoprecipitated PP2A: PP2A immunoprecipitated from N27 cells was effectively phosphorylated by PKCδ immunoprecipitates
